# Laboratory results taken from the DeepSol protein solubility set.
# Assay: soluble on expression in E. coli; label from the status in PepcDB or PDB records
row,Sequence,soluble on expression in E. coli
1,GPGSMLGSPSDPPPRDAAGDAAAPVSAASSPSAALPVAAVYSTGSQALQAELHQLRERLRVSDEWNMRLQLQLQELLQLPQNEVQDMRQRMQDPDIAIPLLQCYDAVIHEKTEEVERLRREAVDLQTQLDAFRKDQLDVSNAVRMAEELAKSVQGKAAAEVQRYLEAVRELQEELVRLRIEVTRALDAENIAKQDALRIAERAASLETALEAAKQATSKAEAAREAAERKWTIQEQQAEEQEMGAVVQKAQLQRITQENADKAQELERLRAKMTHALRQASDNHAAHLRIVEERHRMIVEDLRSVNRTQELEVLKLRAQLARCDMTNPSGAGRGTGASSASTSSLRLQSTAELLEAQTRQAQEMELKRLHGEVSALQLQRDDAVRQCEQRTSRLQRDFDQQLQDAQRQLQSAQRSFSEARSRCEELEETKAAQEASLRKARDELRQAQQGGQQYRLSADSSARKLASAQQQLAEASKRFSTLQEEKQSAVRQAHERVSELEANVAQALQEVQSAKERAYAEVEEVQRRYEQLRLQNSKLQDDLREREAALVKKERERSILVAQIGRLEDGLEAHKRQMMESDRRVQQLEQQLIAMRQQQREGFLSLEQVKLQNAQLTRTRDQLAEMLQARSL,not soluble
2,MQTLKYISGYSPDIQRQVQQLLESGKLGDVLLRRHPQVHEIRSDKALYDYTQGIKNQFLRQSSPLSKVIFDDKISMSHHALGLHSYVARVQGNKIKAKNEIRISSRLKRVPEPLLRMVVVHELAHLKEKDHNKAFYNLCTYMEPDYHQFEFDLRLLLTCIDANQSPYATNSINLEHHHHHH,soluble
3,MNILFAVSECVPFVKSGGLADVAGALPKELKKLGVDVRIILPNYSLIPQKLRDGCTLHKVINVPLGWRNQYCGILKGEQDGITYYLIDNEYYFKRDSLYGHYDDGERFSYFSKAVLECIPHLDFEVDVLHSHDWHTAMVNFLLREKYQDNPLYERIKTVYTIHNLQFQGVFPPEVIYDLLELGDEYFHSEQLEFYGNVNFMKGGIIASDQITAVSPTYKEEIQYEFFGEKLDGLLRKYNDKLSGIVNGIDTSVYNPETDSYIKAQYDAESLYEKSENKRALQRYFGLPEKEDTPIISMVTRLTKQKGLDLVRTVFREIMEEDVQCIILGSGDSEYEQFFEWMAYEYPEKVKVYIGFNEELAHQVYAGSDLFLMPSLFEPCGLGQLIALAYGTIPIVRETGGLNDTVHSYDEETGEGNGFSFTNFNAHDMLHTIHRAIEFYHDKPVWEQLVKQAMTEDYSWEQSALAYKELYKSLME,soluble
4,MGSDKIHHHHHHMGKARRGLQRGNGVHRHEAVRMFISLREIAPQGGLGPPRQLAGRRIAHVLDQAFRVALEVSARCHAVRVAHRVKSFVCTQQSRFVMGRQRLASMAHLRQNPPMAKLYFNYSTMNAGKSTLLLQASYNYIERGMQTYLLTANFDDRAGMGRIGSRIGIEAEADTYTQSDDLFAKIDARLKAGPCACVLVDEAQWMTRDQVWQLARAVDDLGVPVMCYGLRVDFRGELFPGSAALLALADEMREVRTICHCGRKATMVIRVGEDGNALAEGAQIEVGGNDRYISLCRKHFREAVGDVPV,not soluble
5,MGHPETTKFHHLSTKVTISVPEEECYGSTNRTSFNGEDIEEVLEAILKSGMKLKMEKSNFGHAKIKFLGYIVLEEGIQTDPKTIKAIAKFPQPENVTDVRKFIGFALY,not soluble
6,QEGTLERSDWRKFFSEFQAKGTIVVADERQADRAMLVFDPVRSKKRYSPASTFKIPHTLFALDAGAVRDEFQIFRWDGVNRGFAGHNQDQDLRSAMRNSTVWVYELFAKEIGDDKARRYLKKIDYGNADPSTSNGDYWIEGSLAISAQEQIAFLRKLYRNELPFRVEHQRLVKDLMIVEAGRNWILRAKTGWEGRMGWWVGWVEWPTGSVFFALNIDTPNRMDDLFKREAIVRAILRSIEALPPNPAVNSDAAR,soluble
7,MSLRKKGPVVLGKFWIYWCEKCNVPLIGDTCSIHGKDSVFKITLTPPGDVRFAFPKDIELIREVFREHYGVDLGELLEGKIVLLNKIPGEDDSYEIIFDGFIFGIISFNPRKLKWKPGLKEEGAKLLWEKFGKSLKKWVIIDRGAVEPVKNGANVLPVGVIEAEESIRRGDEVIVVSEDGEVVGVGIAKKDYNELINPQARGTGVKMKRKSKGSGKRLNGRKATIKDVIKANSAELEKKVREARNFMRSVAEKFKLPVAVAFSGGKDSLAVLGLAMEEFNNFTVFFNNTGIEFPETVEYVMKLREKYKNLNFIIADAGDAFWRAINIFSPPGMDYRWCCKVTKLGPITLAIRKHFPNGVLMFVGQRKFESFKRYKQGRVWKNKWVPNEIGAAPIFHWTALEVWLYIFSRGLEYNPLYEKGIDRIGCFLCPSQSLAEIQRLKEEKPELWEKWYRELEKWRKRLGLPREWIEYGFWRWRRVGRREKVLAKELGVEIPEERSWEVIKFDIKEEEGKYIVRPSTKLNLTRIREVAPILGNVEEGDNYLKAGENIFDKDKNVIISPSLEEAYSSVLLLKRAYECVGCGVCITSCPEEAIELDEKRKKIVVSLEKCTHCRECMNVCPLVVIKGVDNILEGHHHHHH,not soluble
8,MYAAKGTQAYAQIGVESAVMSASQQQLVTMLFDGVLSALVRASLFMQDNNQQGKGVSLSKAINIIENGLRVSLDEESKDELTQNLIALYSYMVRRLLQANLRNDVSAVEEVEALMRNIADAWKESLLSPSLIQDPV,soluble
9,MGSSHHHHHHSSGLVPRGSHMAPSRRERERERRREQIIRAAEKAFFARGYDRVTMDEIAEEAEVNKALLYYYFKNKESLFFAVNLYGVRILHSMYRRCLELDTDGYGKVRAMVEALYSFSKEHPDYFRIYCYSGTERFELSESEDAREIVDLRTGMWRLMVEAIMEGMNDGSIRSDLDPVELSIYIHTLAINALNLDFTSRMVLEARNISRDRFWEDLEVFLESALRP,soluble
10,MRIDTVNVLLEALPYIKEFYGKTFVIKFGGSAMKQENAKKAFIQDIILLKYTGIKPIIVHGGGPAISQMMKDLGIEPVFKNGHRVTDEKTMEIVEMVLVGKINKEIVMNLNLHGGRAVGICGKDSKLIVAEKETKHGDIGYVGKVKKVNPEILHALIENDYIPVIAPVGIGEDGHSYNINADTAAAEIAKSLMAEKLILLTDVDGVLKDGKLISTLTPDEAEELIRDGTVTGGMIPKVECAVSAVRGGVGAVHIINGGLEHAILLEIFSRKGIGTMIKELEG,soluble
11,MKIDILDKGFVELVDVMGNDLSAVRAARVSFDMGLKDEERDRHLIEYLMKHGHETPFEHIVFTFHVKAPIFVARQWFRHRIASYNELSGRYSKLSYEFYIPSPERLEGYKTTIPPERVTEKISEIVDKAYRTYLELIESGVPREVARIVLPLNLYTRFFWTVNARSLMNFLNLRADSHAQWEIQQYALAIARIFKEKCPWTFEAFLKYAYKGDILKEVQV,not soluble
12,LSAGALKATASQQDKPESQYGLAGQLQAAAGQQGVTAQQQTRAEAAQQAQLPLQLTKELANEQVAEKVQMMMSKNLKNLDIRLDPPELGRMQIRMTMNNDLANVHFTVTNPQARDIIEQTLPRLREMLAQQGMQLADSSVQQQS,not soluble
13,MTIATIDIGGTGIKFASLTPDGKILDKTSISTPENLEDLLAWLDQRLSEQDYSGIAMSVPGAVNQETGVIDGFSAVPYIHGFSWYEALSSYQLPVHLENDANCVGLSELLAHPELENAACVVIGTGIGGAMIINGRLHRGRHGLGGEFGYMTTLAPAEKLNNWSQLASTGNMVRYVIEKSGHTDWDGRKIYQEAAAGNILCQEAIERMNRNLAQGLLNIQYLIDPGVISLGGSISQNPDFIQGVKKAVEDFVDAYEEYTVAPVIQACTYHADANLYGALVNWLQEEKQW,soluble
14,IPEYVDWRQKGAVTPVKNQGSCGSCWAFSAVVTIEGIIKIRTGNLNQYSEQELLDCDRRSYGCNGGYPWSALQLVAQYGIHYRNTYPYEGVQRYCRSREKGPYAAKTDGVRQVQPYNQGALLYSIANQPVSVVLQAAGKDFQLYRGGIFVGPCGNKVDHAVAAVGYGPNYILIKNSWGTGWGENGYIRIKRGTGNSYGVCGLYTSSFYPVKN,soluble
15,MGSDKIHHHHHHMEPGSQVTDRLRFGCTGCGKCCTGHHVPLTLAEARRWAEDAGQVVVLIEAFVVDGPGMPLEQRDHVLRRSHPVHCGEGEARVSVTFAAFNPGRCRNLDANDLCTIYEQRPLVCRIYPVEINPHIPLRPDSKDCPPEAWQQGPELIHGTQLVDVELQALVQASRQADRDDIAAKVAVCQALGMTTSALKGNGFTAYLPDMGAFAAALAQVQGNEGAQWTLHVQDEALTASLQALGLRTTHETPVYYAFIGF,not soluble
16,MEEKDWEGSPLSENEAGLLCYDDEEYQFGGPAPKLQFRYLSEIGELQLLGDEDDVVISLKDLYGEIAEGKYGCCWENYEVYRYLKGLGYILGRHGVPWTTKYAVNTTPSDEDESLCAAEFFQDRDSVTKLLSDMHICDARPVFDVYLPNSQFKKSSPGEPSFVTCFSG,soluble
17,DNKINIGLAVMKILESWGADTIYGIPSGTLSSLMDAMGEEENNVKFLQVKHEEVGAMAAVMQSKFGGNLGVTVGSGGPGASHLINGLYDAAMDNIPVVAILGSRPQRELNMDAFQELNQNPMYDHIAVYNRRVAYAEQLPKLVDEAARMAIAKRGVAVLEVPGDFAKVEIDNDQWYSSANSLRKYAPIAPAAQDIDAAVELLNNSKRPVIYAGIGTMGHGPAVQELARKIKAPVITTGKNFETFEWDFEALTGSTYRVGWKPANETILEADTVLFAGSNFPFSEVEGTFRNVDNFIQIDIDPAMLGKRHHADVAILGDAALAIDEILNKVDAVEESAWWTANLKNIANWREYINMLETKEEGDLQFYQVYNAINNHADEDAIYSIDVGNSTQTSIRHLHMTPKNMWRTSPLFATMGIAIPGGLGAKNTYPDRQVWNIIGDGAFSMTYPDVVTNVRYNMPVINVVFSNTEYAFIKNKYEDTNKNLFGVDFTDVDYAKIAEAQGAKGFTVSRIEDMDRVMAEAVAANKAGHTVVIDCKITQDRPIPVETLKLDSKLYSEDEIKAYKERYEAANLVPFREYLEAEGLESKYIK,soluble
18,GMKEIRIILMGTGNVGLNVLRIIDASNRRRSAFSIKVVGVSDSRSYASGRNLDISSIISNKEKTGRISDRAFSGPEDLMGEAADLLVDCTPASRDGVREYSLYRMAFESGMNVVTANKSGLANKWHDIMDSANQNSKYIRYEATVAGGVPLFSVLDYSILPSKVKRFRGIVSSTINYVIRNMANGRSLRDVVDDAIKKGIAESNPQDDLNGLDAARKSVILVNHIFGTEYTLNDVEYSGVDERSYNANDRLVTEVYVDDRRPVAVSRIISLNKDDFLMSIGMDGLGYQIETDSNGTVNVSDIYDGPYETAGAVVNDILLLSKVQK,soluble
19,MLSGTRSRSSTKARKGTPRPPALSQSVYCGRRYTGPHTTFFFEITNDEYLLLSVLIFCNPALLQLSENGKLLLTIYRNLYCSALLQHCLLNNQKSGPARFTELLGVYQAIEVHYSDLANYIVLFQLNRPKVNQIVKNCFEAVT,not soluble
20,MMAKDFYSAIEDRRSIYAISKEQVVSDEKIQEVIYHAVKHTPSAFNSQSARVVVLLGEQHDKLWDITKETLRKIVPENNFAPTEEKMNAFKSGYGTVLYFEDSEVVESLQANFALYKDNFPTWSQQSSGMLQFAIWTALEIEGFGATLQHYNPLIDEEVRKEWDVPANWKLIAQMPFGKPVVQAGEKEFQPLENRVKIYKLEHHHHHH,soluble
21,SLDDMTEFKNMPKVELHAHLSGSLSPETIKLIMESDETRAEEIMKKYKLEKPENMTGVFDCFPVIHAILRKPEAIRIAIRQTIKEFEEDNCVYLELRTSPKETDFMTYEDYLQVCIESFEAAKHEFPRIKTFLIVSLDRRMPFETAAHILGLIGEAQQRTNVIVGVELSGDPHLDGRRLLKLFVAARRFHGLGITIHLAEVLQNMADVEDYLNLRPDRIGHGTFLHTDPYTEYLTNKYKIPLEICLSSNVYSKTTTNYRNSHFNYWRKRGVPVFICTDDKGVIPGATLTEEYYKAAITFDLSTEELIGINQDALLNSFAYKYNVTDLTETFRKINNNVLD,soluble
